Reference: patent publication US20230183347A1

Target: human PD-1 (hPD-1) expressed on T cells (DO11.10 T cell hybridomas, DO11.10 mouse CD4+ T cells, activated human CD4+ T cells) (human) (UniProt Q15116)
Assay: cell-based or functional assay

Sequence of UniProt Q15116 (Q15116 25-288 limits assumed): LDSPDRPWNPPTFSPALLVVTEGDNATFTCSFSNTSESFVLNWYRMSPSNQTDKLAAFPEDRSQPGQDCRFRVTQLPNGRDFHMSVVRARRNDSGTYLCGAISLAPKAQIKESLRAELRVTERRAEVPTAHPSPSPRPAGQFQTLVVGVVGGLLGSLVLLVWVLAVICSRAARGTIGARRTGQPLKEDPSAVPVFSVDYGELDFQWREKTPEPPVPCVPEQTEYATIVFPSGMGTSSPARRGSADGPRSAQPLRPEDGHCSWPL

“anti-human PD-1 antibody (clone: J116, Invitrogen)” was tested, and the IC50 of inhibitory activity on IL-2 production was 1 µg/mL.
